B1: KLHL12 (parent)
chain: SMTTPRCYVGATVLRGRLYAIAGY
B2: BRF1 (parent)
chain: FVESSGGGSSAVGQFVSLDGAGKT

Variants of: B1
Assay: protein stability index of a GFP-peptide fusion (GPS, HEK-293T) (PSI 1-6); higher = more stable
Conditions: c terminus: a fixed tail appended
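Also: lentivirally expressed fusions sorted by FACS into six bins by GFP to DsRed ratio, PSI derived from sequencing read proportions per bin multiplied by bin number.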

Protein stability index: each site, then its substitutions
Y19: D 1.99, R 1.77, C 2.91, F 2.02, E 2.19, A 1.65, G 2.81, P 2.22, N 2.66, K 1.79, H 1.72, M 1.79, L 2.15, I 3.51, T 2.02, Q 2.11, W 3.23, S 2
Y24: A 1.48, N 1.75, G 2.13, I 2.45, S 1.27, E 2.33, R 1.95, C 1.82, D 2.03, Q 2.45, P 2.64, T 1.82, M 3.33, K 2.17, W 2.45, L 2.46, H 1.43, F 3.7
G16: L 2.05, C 2.22, H 1.98, E 1.25, F 2.91, S 2.46, Q 1.45, N 1.98, T 2.04, K 1.77, Y 2.42, W 1.48, I 3.21, D 1.58, R 2.39, V 3.05, P 2.19
I21: D 1.46, E 1.78, G 1.78, M 1.28, H 1.59, C 1.37, A 2.65, P 2.29, Q 1.67, W 2.43, T 1.37, F 2.81, L 2.73, R 1.93, S 1.2, V 2.33, K 1.57, N 1.81
R15: G 2.98, A 2.33, D 2.78, H 2.64, M 1.59, K 2.57, T 2.62, S 1.63, V 3.43, L 2.21, C 3.81, Q 1.46, W 1.66, P 1.88, Y 3.51, I 2.18, E 2.11, N 1.95
G23: N 1.78, P 2.39, D 1.64, Q 3.57, T 2.54, W 2.54, L 3.25, K 1.35, M 2.83, A 3.75, S 2.08, H 3.9, E 2.19, R 1.97, F 2.6, I 1.86
R17: I 3.46, T 1.92, Y 2.26, V 2.35, E 1.68, G 2.27, Q 1.85, M 3.27, D 1.88, H 2.17, N 2.17, A 1.73, S 3.1, P 2.42, C 2.04, F 3.17
L18: R 1.9, D 1.94, G 1.7, H 2.1, T 1.78, A 1.49, K 1.75, M 1.72, C 2.93, Y 2.68, E 1.95, P 1.87, F 2.67, N 2, Q 1.81, S 1.36, V 2.08, I 1.68
T12: K 2.48, I 2.46, V 3.43, S 1.63, D 1.85, N 2.87, F 2.4, R 2.21, M 3.47, C 2.41, G 1.18, Q 1.92, P 1.94, Y 4.56, E 1.1, L 2.77
V13: S 1.88, A 1.83, P 1.95, L 3.54, H 3.25, K 1.96, E 2.69, R 1.74, T 1.03, Q 2.85, F 1.85, Y 2.03, D 1.28, G 2.24, I 1.84, N 1.81, C 1.58, M 1.73
A20: G 2.11, Q 2.45, V 3.5, P 2.26, H 1.18, D 1.48, N 1.72, M 2.23, C 2.26, W 3.09, K 3.06, E 1.76, Y 2.41, I 2.3, R 1.34, T 1.01, F 2.38
L14: F 1.77, G 1.55, R 1.99, C 2.48, T 2.5, W 3.9, Y 3.61, A 1.79, S 1.9, I 1.99, Q 2.76, K 1.93, P 2.01, D 1.58, E 1.93, H 1.62, N 1.17
A22: V 1.94, D 2.12, Q 1.52, G 1.24, E 2.3, S 1.26, F 2.3, N 1.3, M 2.01, C 3.97, R 2.86, H 2.68, P 2.08, I 3.06, T 1.69, K 1.52

Variants of: B2
Assay: as above
Conditions: c terminus: a fixed tail appended

Protein stability index, by site and new letter:
T24: R 3.12, F 1.62, W 2.24
F15: N 2.83, E 3.35, S 2.73, P 3.14
G22: E 3.08, Y 1.9, K 1.73, I 2.62
S9: P 1.5, Y 2.82, E 3.38, V 2.58, F 1.49, G 2.36
D19: H 2.27, G 1.69, P 2.26, W 3.02, T 1.59
L18: D 2.58, H 3.25, W 1.58, M 2.55
G8: V 1.95, R 1.32, H 1.51, S 2.06, N 2.12
Q14: P 3.44, Y 1.75, A 1.73, M 3.29, I 2.53, E 2.89, C 1.96, D 2.73
G13: S 2.05, V 2.25, K 2.06, C 1.92
V12: G 2.37, I 2.09, S 2.43, L 1.95
G6: V 2.18, H 1.74, Y 2.45, I 1.49, T 2.53, W 2.5
E3: C 1.88, M 2.71, W 3.35, I 2.62
K23: Y 2.05, G 2.38, P 2.73, S 2, D 2.68, Q 2.01, C 2.23
G20: I 2.16, F 2.6, Q 3.03
S5: K 2.58, I 2.24, D 3.37
G7: Q 2.26, K 2.09, A 2.86, W 2.54, T 2.38
S17: R 1.73, K 1.89, A 3.26
S4: K 2.63, R 2.42, N 2.62, M 1.08
A11: C 1.58, S 1.95, K 1.41, L 1.77, F 2.02, Y 1.64, H 1.9
V2: Q 4.12, G 4.36
A21: L 1.8, E 3.23, K 2.43, H 2.13, P 1.95, S 2.15, M 2.32
F1: C 4.65, R 5, N 5.17
V16: M 2.96, P 2.66, E 3.51, S 2.83, Y 1.75, D 2.96, A 2.65
S10: N 2.31, V 1.96, T 2.72
